In IntAct's records for PubMed 12386165:

B1: Solute carrier family 12 member 1 (Homo sapiens), Q13621 (parent)
chain: MSLNNSSNVFLDSVPSNTNRFQVSVINENHESSAAADDNTDPPHYEETSFGDEAQKRLRISFRPGNQECYDNFLQSGETAKTDASFHAYDSHTNTYYLQTFGHNTMDAVPKIEYYRNTGSISGPKVNRPSLLEIHEQLAKNVAVTPSSADRVANGDGIPGDEQAENKEDDQAGVVKFGWVKGVLVRCMLNIWGVMLFIRLSWIVGEAGIGLGVLIILLSTMVTSITGLSTSAIATNGFVRGGGAYYLISRSLGPEFGGSIGLIFAFANAVAVAMYVVGFAETVVDLLKESDSMMVDPTNDIRIIGSITVVILLGISVAGMEWEAKAQVILLVILLIAIANFFIGTVIPSNNEKKSRGFFNYQASIFAENFGPRFTKGEGFFSVFAIFFPAATGILAGANISGDLEDPQDAIPRGTMLAIFITTVAYLGVAICVGACVVRDATGNMNDTIISGMNCNGSAACGLGYDFSRCRHEPCQYGLMNNFQVMSMVSGFGPLITAGIFSATLSSALASLVSAPKVFQALCKDNIYKALQFFAKGYGKNNEPLRGYILTFLIAMAFILIAELNTIAPIISNFFLASYALINFSCFHASYAKSPGWRPAYGIYNMWVSLFGAVLCCAVMFVINWWAAVITYVIEFFLYVYVTCKKPDVNWGSSTQALSYVSALDNALELTTVEDHVKNFRPQCIVLTGGPMTRPALLDITHAFTKNSGLCICCEVFVGPRKLCVKEMNSGMAKKQAWLIKNKIKAFYAAVAADCFRDGVRSLLQASGLGRMKPNTLVIGYKKNWRKAPLTEIENYVGIIHDAFDFEIGVVIVRISQGFDISQVLQVQEELERLEQERLALEATIKDNECEEESGGIRGLFKKAGKLNITKTTPKKDGSINTSQSMHVGEFNQKLVEASTQFKKKQEKGTIDVWWLFDDGGLTLLIPYILTLRKKWKDCKLRIYVGGKINRIEEEKIVMASLLSKFRIKFADIHIIGDINIRPNKESWKVFEEMIEPYRLHESCKDLTTAEKLKRETPWKITDAELEAVKEKSYRQVRLNELLQEHSRAANLIVLSLPVARKGSISDLLYMAWLEILTKNLPPVLLVRGNHKNVLTFYS
B2: Solute carrier family 12 member 6 (Mus musculus), Q924N4-1 (parent)
chain: MHPPEATTKMSSVRFMVTPTKIDDIPGLSDTSPDLSSRSSSRVRFSSRESVPETSRSEPMSELSGATTSLATVALDPSSDRTSNPQDVTEDPSQNSITGEHSQLLDDGHKKARNAYLNNSNYEEGDEYFDKNLALFEEEMDTRPKVSSLLNRMANYTNLTQGAKEHEEAENITEGKKKPTKSPQMGTFMGVYLPCLQNIFGVILFLRLTWVVGTAGILQAFAIVLICCCCTMLTAISMSAIATNGVVPAGGSYFMISRALGPEFGGAVGLCFYLGTTFAAAMYILGAIEIFLVYIVPRAAIFRSDDALKESAAMLNNMRVYGTAFLVLMVLVVFIGVRYVNKFASLFLACVIVSILAIYAGAIKSSFAPPHFPVCMLGNRTLSSRHLDICSKTKEVDNMTVPSKLWGFFCNSSQFFNATCDEYFVHNNVISIQGIPGLASGIITENLWSNYLPKGEIIEKPSAKSSDVLGNLNHEYVLADITTSFTLLVGIFFPSVTGIMAGSNRSGDLKDAQKSIPIGTILAILTTSFVYLSNVVLFGACIEGVVLRDKFGDAVKGNLVVGTLSWPSPWVIVIGSFFSTCGAGLQSLTGAPRLLQAIAKDNIIPFLRVFGHSKANGEPTWALLLTAAIAELGILIASLDLVAPILSMFFLMCYLFVNLACALQTLLRTPNWRPRFRYYHWALSFMGMSICLALMFISSWYYAIVAMVIAGMIYKYIEYQGAEKEWGDGIRGLSLSAARFALLRLEEGPPHTKNWRPQLLVLLKLDEDLHVKHPRLLTFASQLKAGKGLTIVGSVIVGNFLENYGDALAAEQTIKHLMEAEKVKGFCQLVVAAKLKEGISHLIQSCGLGGMKHNTVVMGWPNGWRQSEDARAWKTFIGTVRVTTAAHLALLVAKNVSFFPSNVEQFSEGNIDVWWIVHDGGMLMLLPFLLKQHKVWRKCSIRIFTVAQLEDNSIQMKKDLATFLYHLRIEAEVEVVEMHDSDISAYTYERTLMMEQRSQMLRHMRLSKTERDREAQLVKDRNSMLRLTSIGSDEDEETETYQEKVHMTWTKDKYMASRGQKVKSMEGFQDLLNMRPDQSNVRRMHTAVKLNEVIVNKSHEAKLVLLNMPGPPRNPEGDENYMEFLEVLTEGLERVLLVRGGGSEVITIYS

Tests used:
[1] = variants of: B1; details: with stk39_mouse Stk39, Q9Z1W9
[2] = variants of: B1; details: with oxsr1_mouse Oxsr1, Q6P9R2
Target sequence in this assay (Q6P9R2 whole entry): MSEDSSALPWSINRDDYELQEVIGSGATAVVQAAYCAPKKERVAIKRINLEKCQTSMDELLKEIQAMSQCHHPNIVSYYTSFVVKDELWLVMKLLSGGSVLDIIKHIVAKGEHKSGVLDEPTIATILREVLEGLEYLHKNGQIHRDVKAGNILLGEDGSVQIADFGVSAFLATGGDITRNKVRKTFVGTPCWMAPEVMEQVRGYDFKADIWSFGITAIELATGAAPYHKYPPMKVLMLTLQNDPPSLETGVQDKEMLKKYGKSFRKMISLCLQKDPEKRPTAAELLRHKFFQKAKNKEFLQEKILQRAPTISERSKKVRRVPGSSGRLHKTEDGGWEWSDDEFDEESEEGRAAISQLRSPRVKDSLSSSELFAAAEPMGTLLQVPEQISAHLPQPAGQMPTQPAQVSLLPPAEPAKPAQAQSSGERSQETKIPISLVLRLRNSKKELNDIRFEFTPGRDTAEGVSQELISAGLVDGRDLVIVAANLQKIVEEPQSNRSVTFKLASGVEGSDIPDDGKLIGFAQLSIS

[3] = variants of: B2; details: with oxsr1_mouse Oxsr1, Q6P9R2; remark: listed apart in the source
Target sequence in this assay (Q6P9R2 whole entry): as above

[4] = variants of: B2; details: with stk39_mouse Stk39, Q9Z1W9; remark: listed apart in the source

Row | effect of a mutation on the interaction [1] | effect of a mutation on the interaction [2] | effect of a mutation on the interaction [3] | effect of a mutation on the interaction [4] | Variant
1 | decreasing interaction | decreasing interaction |  |  | N27A
2 | decreasing interaction | decreasing interaction |  |  | V25A
3 | decreasing interaction | decreasing interaction |  |  | V23A
4 | decreasing interaction | decreasing interaction |  |  | E28A
5 | decreasing interaction | decreasing interaction |  |  | S24A

Continued, variant first:

Row | Variant | effect of a mutation on the interaction [1] | effect of a mutation on the interaction [2] | effect of a mutation on the interaction [3] | effect of a mutation on the interaction [4]
6 | R20A | decreasing interaction | decreasing interaction |  | 
7 | F21A | decreasing interaction | decreasing interaction |  | 
8 | F15A |  |  | decreasing interaction | decreasing interaction
9 | P19A |  |  | decreasing interaction | decreasing interaction
10 | R14A |  |  | decreasing interaction | decreasing interaction
11 | V17A |  |  | decreasing interaction | decreasing interaction
12 | I22A |  |  | decreasing interaction | decreasing interaction
13 | K21A |  |  | decreasing interaction | decreasing interaction
